The assay has as its target EGFR 1045+ add-back mutant (pY-null 9Y- backbone with Y1045 added back) (human) (UniProt P00533). The assay can be described thus: co-IP.

We go through one substance from PMC3730230.

Where “and” joins values, the source holds several entries; their conditions need not be identical. Equal entries are not always repeated.

With “Cbl, endogenous in NR6 cells (from UniProt P22682 1-913) (enzyme)”, the fold reduction of association against EGFR-WT is 4 fold and 5 fold.
